Data as given in PMC10266731 (Science Advances, 2023).
Like-named read-outs stand apart in the source and are kept apart here.

Tests used:
[1] = test system: propionyl-CoA synthetase (Pcs)
purified protein [2] = substrate: CC(C)(COP(=O)(O)OP(=O)(O)OC[C@H]1O[C@@H](n2cnc3c(N)ncnc32)[C@H](O)[C@@H]1OP(=O)(O)O)[C@@H](O)C(=O)NCCC(=O)NCCSC(=O)CCC(=O)O; experiment: purified protein
purified protein [3] = substrate: O=C(O)C[C@H](O)C(=O)O; experiment: purified protein; conditions: succinyl-CoA co-substrate
purified protein [4] = substrate: NC(=O)C1=CN([C@@H]2O[C@H](COP(=O)(O)OP(=O)(O)OC[C@H]3O[C@@H](n4cnc5c(N)ncnc54)[C@H](OP(=O)(O)O)[C@@H]3O)[C@@H](O)[C@H]2O)C=CC1; experiment: purified protein; conditions: acrylyl-CoA co-substrate; varied: cofactor
purified protein [5] = substrate: C=CC(=O)SCCNC(=O)CCNC(=O)[C@H](O)C(C)(C)COP(=O)(O)OP(=O)(O)OC[C@H]1O[C@@H](n2cnc3c(N)ncnc32)[C@H](O)[C@@H]1OP(=O)(O)O; experiment: purified protein; conditions: NADPH co-substrate
[6] = substrate: N[C@@H](CCC(=O)O)C(=O)O; experiment: malonic semialdehyde made by McrC; type: biochemical, Escherichia coli; conditions: malonic semialdehyde co-substrate, NH4Cl
[7] = substrate: O=CCC(=O)O; experiment: malonic semialdehyde made by McrC; type: biochemical, Escherichia coli; conditions: L-glutamate co-substrate, NH4Cl
purified protein [8] = substrate: CC(C)(COP(=O)(O)OP(=O)(O)OC[C@H]1O[C@@H](n2cnc3c(N)ncnc32)[C@H](O)[C@@H]1OP(=O)(O)O)[C@@H](O)C(=O)NCCC(=O)NCCSC(=O)/C=C/C(=O)O; experiment: purified protein
purified protein [9] = substrate: CC(C)(COP(=O)(O)OP(=O)(O)OC[C@H]1O[C@@H](n2cnc3c(N)ncnc32)[C@H](O)[C@@H]1OP(=O)(O)O)[C@@H](O)C(=O)NCCC(=O)NCCSC(=O)CC(=O)O; experiment: purified protein; conditions: NADPH co-substrate; full-length Mcr assumed (McrC also made)
purified protein [10] = substrate: CC(C)(COP(=O)(O)OP(=O)(O)OC[C@H]1O[C@@H](n2cnc3c(N)ncnc32)[C@H](O)[C@@H]1OP(=O)(O)O)[C@@H](O)C(=O)NCCC(=O)NCCSC(=O)CCN; experiment: purified protein; conditions: NADPH, NaHCO3, excess Ccr

For Nc1ncnc2c1ncn2[C@@H]1O[C@H](COP(=O)(O)OP(=O)(O)OP(=O)(O)O)[C@@H](O)[C@H]1O [ATP], the Km ([1]; read-out: app. Km, 3-hydroxypropionate, NADPH co-substrates) was 10 µM.

O=C(O)CCO [3-hydroxypropionate] was tested, and the Km ([1]; read-out: app. Km, ATP, NADPH co-substrates) was 85 µM.

B1: (2S)-methylsuccinyl-CoA dehydrogenase (PmMcd) (Pseudomonas migulae) (protein)
chain: MLPITAADDVQGLLLQLRGLLEQAISALASRCTKGRQLDAELLDLMQVPTFELAWASAELLAAERSLQAIDAGTSSVDRRLILVFAVEAITLVHSRLEAIYAELDLADGTLHAIAADQKLRALRRSVLSSTALHDSARLMVERPEQIGQVAMGDELSMIEDQFRRFAADTVAPLAEHIHREDLIIPDSLLAALRDMGVFGLSIPERYGGSAPDDQEDPLTMIVVTEALSQASLAAAGSLITRPEILSRALLSGGTESQKQHWLARLAVGDPLCAIAITEPDYGSDVAGLTLRGTPCEGGWRLNGAKTWCTFAGKAGVLMVVTRTNPDKSLGHRGLSLLLAEKPSYDGHEFDFRQPGGGSLTGRAIPTIGYRGMHSFDLSFEDFFVPDGNVIGEAQGLGKGFYHTMAGMTGGRMQTAGRASGVMRAALLAGLRYATERKVFGSPLLDYPLTGAKLTKMAARYVASRYLTYSVGRMLAQGEGRMEASLVKLFACRSAELVTRESLQIHGGMGYAEEVAVSRYFVDARVLSIFEGAEETLALKVIGRSLLEAALKAEAA
For B1, the Km (purified protein [2]; ferrocenium electron acceptor) was 78 µM.

B2: succinyl-CoA:L-malate CoA transferase (Smt) (Chloroflexus aurantiacus) (protein)
chain 1: MPPTGEEPSGHAESKPPASDPMSTPGTGQEQLPLSGIRVIDVGNFLAGPYAASILGEFGAEVLKIEHPLGGDPMRRFGTATARHDATLAWLSEARNRKSVTIDLRQQEGVALFLKLVAKSDILIENFRPGTMEEWGLSWPVLQATNPGLIMLRVSGYGQTGPYRRRSGFAHIAHAFSGLSYLAGFPGETPVLPGTAPLGDYIASLFGAIGILIALRHKEQTGRGQLIDVGIYEAVFRILDEIAPAYGLFGKIREREGAGSFIAVPHGHFRSKDGKWVAIACTTDKMFERLAEAMERPELASPELYGDQRKRLAARDIVNQITIEWVGSLTRDEVMRRCLEKEVPVGPLNSIADMFNDEHFLARGNFACIEAEGIGEVVVPNVIPRLSETPGRVTNLGPPLGNATYEVLRELLDISAEEIKRLRSRKII
chain 2: MDGTTTTLPLAGIRVIDAATVIAAPFCATLLGEFGADVLKVEHPIGGDALRRFGTPTARGDTLTWLSESRNKRSVTLNLQHPEGARVFKELIAHSDVLCENFRPGTLEKWGLGWDVLSKINPRLIMLRVTGYGQTGPYRDRPGFARIAHAVGGIAYLAGMPKGTPVTPGSTTLADYMTGLYGCIGVLLALRHREQTGRGQYIDAALYESVFRCSDELVPAYGMYRKVRERHGSHYNEFACPHGHFQTKDGKWVAISCATDKLFARLANAMGRPELASSSVYGDQKVRLAHASDVNEIVRDWCSSLTRAEVLERCYATATPAAPLNDIADFFGDRHVHARRNLVAIDAEDLGETLIMPNVVPKLSETPGSIRSLGPKLGEHTEEVLKEILGMCDEQINDLRSKRVI
In the case of B2, the Km (purified protein [2]; malate co-substrate) is reported as 960 µM and the Km (purified protein [3]) is reported as 910 µM.

B3: Ccr (Methylorubrum extorquens AM1) (protein)
chain: MAASAAPAWTGQTAEAKDLYELGEIPPLGHVPAKMYAWAIRRERHGPPEQSHQLEVLPVWEIGDDEVLVYVMAAGVNYNGVWAGLGEPISPFDVHKGEYHIAGSDASGIVWKVGAKVKRWKVGDEVIVHCNQDDGDDEECNGGDPMFSPTQRIWGYETGDGSFAQFCRVQSRQLMARPKHLTWEEAACYTLTLATAYRMLFGHAPHTVRPGQNVLIWGASGGLGVFGVQLCAASGANAIAVISDESKRDYVMSLGAKGVINRKDFDCWGQLPTVNSPEYNTWLKEARKFGKAIWDITGKGNDVDIVFEHPGEATFPVSTLVAKRGGMIVFCAGTTGFNITFDARYVWMRQKRIQGSHFAHLKQASAANQFVMDRRVDPCMSEVFPWDKIPAAHTKMWKNQHPPGNMAVLVNSTRAGLRTVEDVIEAGPLKAM
Molecule B3 has a Km (purified protein [4]) of 210 µM and a Km (purified protein [5]) of 780 µM.

B4: 4-aminobutyrate-2-oxoglutarate transaminase (GabT) (Escherichia coli K-12) (protein)
chain: MNSNKELMQRRSQAIPRGVGQIHPIFADRAENCRVWDVEGREYLDFAGGIAVLNTGHLHPKVVAAVEAQLKKLSHTCFQVLAYEPYLELCEIMNQKVPGDFAKKTLLVTTGSEAVENAVKIARAATKRSGTIAFSGAYHGRTHYTLALTGKVNPYSAGMGLMPGHVYRALYPCPLHGISEDDAIASIHRIFKNDAAPEDIAAIVIEPVQGEGGFYASSPAFMQRLRALCDEHGIMLIADEVQSGAGRTGTLFAMEQMGVAPDLTTFAKSIAGGFPLAGVTGRAEVMDAVAPGGLGGTYAGNPIACVAALEVLKVFEQENLLQKANDLGQKLKDGLLAIAEKHPEIGDVRGLGAMIAIELFEDGDHNKPDAKLTAEIVARARDKGLILLSCGPYYNVLRILVPLTIEDAQIRQGLEIISQCFDEAKQ
B4 was tested, and the Km [6] was 7 µM and the Km [7] was 98 µM.

B5: mesaconyl-CoA hydratase (Mch) (Cereibacter sphaeroides 2.4.1) (protein)
chain: MKTNAGRFFEDYRLGETIAHAVPRTVSGGERALYHALYPARHALSSSDEFARACGLPAAPVDELMAFHLVFGKTVPDISLNAVANLGYAEGRWLKPVFPGDTLRAESTVIGLKENSNGASGVVWVRTRGLNQQGEAVLSYVRWVMVRKRDTAAPAPAPTVPELAGSVAASDLVIPEGLSFTDYDLTLAGEPHRWGDYAVGEKIDHVDGVTVEESEHMLATRLWQNTAKVHFDATNRPDGRRLIYGGHVISLARTLSFNGLANAQMIVALNAGAHANPCFAGDTVRAWSEVLDKAETADPGVGALRLRLVAMKHGTEPFVTRSEDGKYLPGVLLDLDYWALVPR
With B5 the Km (purified protein [8]) was 280 µM.

B6: Malonyl-CoA reductase (Mcr) (Chloroflexus aurantiacus J-10-fl) (protein)
chain: MSGTGRLAGKIALITGGAGNIGSELTRRFLAEGATVIISGRNRAKLTALAERMQAEAGVPAKRIDLEVMDGSDPVAVRAGIEAIVARHGQIDILVNNAGSAGAQRRLAEIPLTEAELGPGAEETLHASIANLLGMGWHLMRIAAPHMPVGSAVINVSTIFSRAEYYGRIPYVTPKAALNALSQLAARELGARGIRVNTIFPGPIESDRIRTVFQRMDQLKGRPEGDTAHHFLNTMRLCRANDQGALERRFPSVGDVADAAVFLASAESAALSGETIEVTHGMELPACSETSLLARTDLRTIDASGRTTLICAGDQIEEVMALTGMLRTCGSEVIIGFRSAAALAQFEQAVNESRRLAGADFTPPIALPLDPRDPATIDAVFDWAGENTGGIHAAVILPATSHEPAPCVIEVDDERVLNFLADEITGTIVIASRLARYWQSQRLTPGARARGPRVIFLSNGADQNGNVYGRIQSAAIGQLIRVWRHEAELDYQRASAAGDHVLPPVWANQIVRFANRSLEGLEFACAWTAQLLHSQRHINEITLNIPANISATTGARSASVGWAESLIGLHLGKVALITGGSAGIGGQIGRLLALSGARVMLAARDRHKLEQMQAMIQSELAEVGYTDVEDRVHIAPGCDVSSEAQLADLVERTLSAFGTVDYLINNAGIAGVEEMVIDMPVEGWRHTLFANLISNYSLMRKLAPLMKKQGSGYILNVSSYFGGEKDAAIPYPNRADYAVSKAGQRAMAEVFARFLGPEIQINAIAPGPVEGDRLRGTGERPGLFARRARLILENKRLNELHAALIAAARTDERSMHELVELLLPNDVAALEQNPAAPTALRELARRFRSEGDPAASSSSALLNRSIAAKLLARLHNGGYVLPADIFANLPNPPDPFFTRAQIDREARKVRDGIMGMLYLQRMPTEFDVAMATVYYLADRNVSGETFHPSGGLRYERTPTGGELFGLPSPERLAELVGSTVYLIGEHLTEHLNLLARAYLERYGARQVVMIVETETGAETMRRLLHDHVEAGRLMTIVAGDQIEAAIDQAITRYGRPGPVVCTPFRPLPTVPLVGRKDSDWSTVLSEAEFAELCEHQLTHHFRVARKIALSDGASLALVTPETTATSTTEQFALANFIKTTLHAFTATIGVESERTAQRILINQVDLTRRARAEEPRDPHERQQELERFIEAVLLVTAPLPPEADTRYAGRIHRGRAITV
B6 showed a Km (purified protein [9]) of 1.3 µM.

B7: β-alanyl-CoA:ammonia lyase (βCal) (Allostigmatella aurantiaca DW4/3-1) (protein)
chain: MSTKAIIRLRMSSHDAHYGGNLVDGARMLGLFGDVATELCIRHDGDEGLFRAYDSVEFLAPVYAGDFIEAEGEILSEGNTSRKMRFEARKVIRPRTDVNDSAADLLSEPVVVCRATGTCVVPKDKQRIPR
For B7, the Km (purified protein [10]) was 70 µM.
